This series is described as follows: label from the status in PepcDB records.
“MACEGRTMISDTYKVRVNLGLCALAAAITLAGCAGLPDQRLANEALKRGDTALAERNYKALADLGYSEAQVGLADIKVATRDPSQIKEAEATYRAAAATSPRAQARLGRLLVAKPDSTQAEREEAETLLKQAAKQGQSNTLIPLAMLYLSYPQSFPKVNAQQQIDQWRAAGNPEAGLAQVLLYRTQGTYDQHLGEVEKICKAALNTTDICYVELATVYQKRGQADQQAALLGQLKSAYARGAVPATRVDSVARVLADRSLGQTDEKTAKELLEQVAPANPASWVSLAQLVYDFPELGDTDQLMAYIDKGREAEQPRAELLLGRLYYEGKTLPADAQKAEQHLQAAAEAGEISAHYYLGQLYRRGYLGNVEPQKAVDHLLAAARGGQNSADYALAQLFSEGHGIRPQPGNAWVFAQLSQANPTPQSAELLQQLDQQLTPDQRNQAQQLLDQEKRARGSLAQGANSTLALEALQDDEKEVDGEDSL”: the protein production entry is given as “failed”. Consider “MACFSDLSKECDMEGCRNHDFLPYKCEYCKLIFCEFHRNAEEHLCSKLKDMELNTVVLCEYCGIVLPDKKEDIQNHLIYKCLYKKKTKSILMCNKRDCKKVLNGINNYICKKCRKSFCLPHRYSDVHNCIKSDEEKSFFKSNIKKNKYILKVTTDGFINTTTHFFNSHTYIVC”, for which the protein production entry is listed as “failed”. The result for “MACTVDFRCLDEGFGGKTYKRKRESQEQAAAEAIADEASMDIDGAPPAAKRSAVASSENPDKPIALAVERPTYDGVIAGKVSGRNWKQPRTHRSSGRFVKNRKPDLEEMKRQREIKKAYKERVNELKEEIRSNKVEKRKKKEEREKRKKENVLRTGTKLQKITNPKTLKKISMSKKQRKQLKKIPDEMLSGGSKKSITN” reads “not failed”.

Consider “MADADLVMTGTVLTVDDARPTAEAIAVADGRVIAVGDRSEVAGLVGANTRVIDLGAGCVMPGFVEAHGHPLLEAVVLSDRFVDIRPVTMRDADDVVAAIRGEVARRGPAGAYLVGWDPLLQSGLGEPTLTWLDSLAPNGPLVIIHNSGHKAYFNSHAAWLNGLTRDTADPKGAKYGRDGNGELDGTAEEIGAILPLLAGVADPSNFGAMLRAECARLNRAGLTTCSEMAFDPGYRPMVEAVRAELTVRLCTYEISNARMCTDATPGQGDDMLRQVGIKIWVDGSPWVGNIDLTFPYLDTPATRAIGVPPGSRGCANYTREQLAEIVGAYFPRGWQIACHVHGDGGVDTILDVYEEALRRNPRDDHRLRLEHVGAIRPDQLRRAAELGVTCSIFVDQIHYWGDVIVDDLFGAQRGSRWMPAGSAVAAGMRISLHNDPPVTPEEPLRNISVAATRVAPSGRVLAPEERLTVEQAIRAQTIDAAWQLFAEDAIGSLQVGKYADMVVLSADPRTVPPEQIADLAVRATFLAGRQVYRRLEHHHHHH”, for which the protein production result is given as “failed”. Take “MADATRIPDSVTLPELTLRGVLLGALITVIFTASNVFLGLKVGLTFSSAIPAAVISMSVLRMFRDANILENNMVQTQASAAGTLSAIIFILPALVMMGHWQGFPFWQTLAICGAGGMLGVMFTIPLRHIMVVQSDLPYPEGVAAAEILRVGSAEAPDTAPGRRGASGMGDILAGGGVAALVSLATGGLRVLGDSFSWWGQLGASVFRLPMGFSLALLGAGYLIGIVAGVAMLVGLLIAWLVAVPVLTATTPMPDGQSISAFANSLWASQVRFIGAGVIGVGAIWTLATLFMPMVRGVRTSFAAFGRSGEAAYGSAPRTERDLPSRWISLITLALVAVLVGVFAAFLQPAVLSPGARWGLVAYAVVFAFVFGFLVAAACGYMAGLIGSSTSPISGVGIVAIVLVSLLMLAIQRGDGLLATPQGLQMGIALAIFTTSAVVAVASISNDNLQDLKTGWLVGATPWRQQVALLIGCVVGAAVISPVLELLYNAYGFGDALPRPGMDPSQALAAPQATLMLAIAQGIFTHQLNWTMILIGMGVGVALIVIDQVLRRTCRVARLPVLAVGIGIYLPPSASAPIVVGAVLAWLLEGALRRRAAAAGQDYERYAEGPNRRGVLVASGLIVGESLVGVLLAAVIGATGDEAPLAVVGAGFGPTAEWLGFVVFAAVAVWIYRRVVRTRPEQA”: the protein production entry is given as “failed”. The result for “MADDDVLFEDVYELCEVIGKGPFSVVRRCINRETGQQFAVKIVDVAKFTSSPGLSTEDLKREASICHMLKHPHIVELLETYSSDGMLYMVFEFMDGADLCFEIVKRADAGFVYSEAVASHYMRQILEALRYCHDNNIIHRDVKPHCVLLASKENSAPVKLGGFGVAIQLGESGLVAGGRVGTPHFMAPEVVKREPYGKPVDVWGCGVILFILLSGCLPFYGTKERLFEGIIKGKYKMNPRQWSHISESAKDLVRRMLMLDPAERITVYEALNHPWLKERDRYAYKIHLPETVEQLRKFNARRKLKGAVLAAVSSHKFNSFYGDPPEELPDFSEDPTSS” reads “failed”; that for “MADDQGRGRRRPLNEDDSSTSRGSGDGPRVKVFRGSSSGDPRADPRIEASRERRALEEAPRREGGPTERKPWGDQYDYLNTRPAELVSKKGTDGVPVMLQTNFFRLKTKPEWRIVHYHVEFEPSIENPRVRMGVLSNHANLLGSGYLFDGLQLFTTRKFEQEITVLSGKSKLDIEYKISIKFVGFISCAEPRFLQVLNLI”, “failed”; that for “MADFVAASGQLGFWTYCLLMIGSVFSGMTLIGVAGLAFTTGYANVWERIIGPPFAIAFGTILIGYKLFNLKDKNGILTIQDYLAFRYDDPKIIRILAGLISAVTCFVYLIGQYTAIGVVSYVVLGIPYWLGAVIAAVIVVAYVMSGGMFSTAWTTFLQSILMLLGIYVTVPFIIAWVGGFEAMNQALAAMPEIQNATRGVAENFMFAKYLSKPFAPASVPLAGWVYNLTLFGITVPLGLMVAPHIVNNMLTFRKIEYTRWGPLVMYVIGFSAIFLTALAGMAARVAWAKGMIDIPSLTLGSIEVKWSDMAYPTIASKALPYWLFVLLLPTILAGVMSTTDRLILTAANNISYDVLRNALGKNLSENALKKVNMLVVPLIGFGSLLIALFPQQLLAWFIWAALSLMTNCFFFPIMLGLYWDRMTKNAARLSMIAGFVVTLATFAIYGKTIYIAGIPAYSVLPGFVASFVLAVGVSLLEKG”, “failed”. Take “MADGATAVRRGLSGATRLSARFTADAETGTRQGMQALPTSRRLCASLRSLPERALAMLPAVVLALLPVIAMLLALAPGNARVAEDCALRVEGQARHADDQRIMSTVRALAQALGEVAQATPPDEREAKLIRSISPVRYGEGPWDYVILSRGTVHLYTPGMEGAAGVDFANATDARGVPFVQEMQSRAVLGGGFTEWTARRADGSTETRRVYSLVVPGTEYWLGAWTTPDGATTAKNEARNGVLITADHAAHRAALWGIMAGLPAALVLHRLLTASQRLRQEKDRR”: the protein production result is given as “failed”.

In the case of “MADGVLAVSQEGFNTLQSYNVGEKYTADLWIQQGGLKSTASVVSFSVDKALLDSMNIADGTSYELLPADCYQLTKSSVDIPANERLLKGELTYDPAKIQELSGYDHLKYVLPLRATSSGMPFVSGRSVLLLGFKVSEPIVTIMNAGVEEINLAEVKELPVQIGVPFTNKWEISCRLESRQSVIDAYNTAHGTYFSMLPSDAYVTPETPILHSGVNQVTATYKLKDDILPGNYMLPVQIAEVTSDATIRADKDVYAAYSIIKEGDKLSKTDWKIVSFTTEEASGEGSNNGHAKHLIDGNIETFWHSRWQGGSDPLPYEIIIDMNHRVKIAQIELLPRGRGSNNPIKVVRFEASEDGTNWESIGQFGFTNQDAALKYYVKSSTARYIKLVIPDGVGNGTVAAIRELDVRGTVVNLEHHHHHH”, the protein production result is “not failed”. As to “MADHSIQGKVALIAGGAKNLGGLIARDLAAHGARAIAIHYNSPASKADADATVAALQAAGAQAVALQGDLTTAAAVEKLYADALAAVGRPDIAINTVGKVLKKPFSEISEAEYDEMAAVNAKSAFFFLKEAGRHVNDHGKIVTLVTSLLGAFTPFYSAYAGTKAPVEHYTRAAAKEFGARGISVTAVGPGPMDTPFFYGQESPEAVAYHQSAAALSPHSPTGLTHIEDVVPFIRHLVSDGWWITGQTLLINGGYTTK”, the protein production entry is recorded as “not failed”. The result for “MADIKRIALLSGGGDCPGLNAVIRAVTKAAINEYGYEVIGYVYGYRGLYNNDYIELTVDKVENIYKEGGTILYSSNKDNLFDYLVDDGHGGKVKKDVSDVGVENLKKAGVDVLVVLGGDGTLTSARDFARKGVNVIGIPKTMDNDLPATDLTYGFISASSVGTEFIDRLNTTAKSHHRVICCELMGRDAGWIALYAGMAGNASCILIPEIPFTIDSIVRHVEKRDKEGYPYTVIAVAEGAKYADGTKVIGKIVEDSPDPIRLGGIASKVADDLEKVIKNHEVRSVNPGHIIRGGDIQAYDRILSIRFGVKAVELIHEGKFGNVVTLKGEEMSYTSLEEVIGDAKFGKQKHVDPNGELVRAAKSIGICFGDD” reads “failed”.

With “MADKIKVSLLGSTGMVGQKMVKMLAKHPYLELVKVSASPSKIGKKYKDAVKWIEQGDIPEEVQDLPIVSTNYEDHKDVDVVLSALPNELAESIELELVKNGKIVVSNASPFRMDPDVPLINPEINWEHLELLKFQKERKGWKGILVKNPNCTAAIMSMPIKPLIEIATKSKIIITTLQAVSGAGYNGISFMAIEGNIIPYIKGEEDKIAKELTKLNGKLENNQIIPANLDSTVTSIRVPTRVGHMGVINIVTNERINIEEIKKTLKNFKSLPQQKNLPTAPKQPIIVRDEEDRPQPIIDVNAESGMAVTVGRIRHENNVLRLVVLGDNLVRGAAGITILTVEVMKELGYI”, the protein production result was “not failed”. To “MADLALLVLTLLWGTTFALVKEALEIASPGVFLTARFGLAAVALLAAWALRPRAPLGDGFWRHGILLGLTMLVGFVLQTVALRHTTPARSGFITGLNVLVVPVVARWFLGRRVRPAFWVGVAFALAGLVMLTRPFTPGAVTEEVRFGDLLTLFCAVAYGLQVTFTSEWAPRHPLAPFVAVQVLVTLAGALVLAPLEGPRFDPAGAGHFALVVAFTGLVMTALAFFVMNWGQRHTTAVRAALIFSLEPAAAAVFSWLYYGEPLGPLDWAGGALMVLGVVAGEVGGVLEARAPRRARGERASTGPG” belongs “failed”; to “MADLRLEREFAVAPEALFAWVSDGAKLLQWWGPEGLHVPADQHDLDFTRLGPWFSVMVNGEGQRYKVSGQVTHVKPPQSVGFTWGWHDDDDRRGAESHVMFIVEPCAKGARLILDHRELGDDEMSLRHEEGWTSSLRKLAAELALEHHHHHH”, “not failed”. In the case of “MADNGQADRKERSNGVIVGTCLAFVAGMIGMAYAAVPLYDMFCRVTGYNGTTQRVEQASDLILDEKIKVTFDANVAAGLPWEFVPVQRDIDVRIGETVQIMYRAKNLASTPTTGQATFNVTPMAAGAYFNKVQCFCFTETTLEPGEEMEMPVVFFVDPEIVKPVETQGIKTLTLSYTFYPREPSKPVAQVKAKAENKL”, the protein production result is “not failed”. To “MADNTLHSSARANWLERRFALRSRGGTLRTECLAGITGFLAAAYLLVVIPGLLAIGGMDKGAATTGTILVFVVGSLLMAFYANLPFIVGPGIGGSVLVGVTLAGSEGIGWQTGLGIACWSGILFFLLTRFGLREVVTRSVPQSIKLGLTASIGLFVAVLGFRNAGLVLANAKTNALMLGDFLAPGALVALCGLFLAIALQARKVPGAILWAILCATLVGIPFGVTKLPTHFIDAPHSLAPVLGQVDLLGALNIAFLPFLFVFFASEFFSTMGTTLAVGGEAGLLDEEGNMPQINRPFMVDSIAAALGPWLGIPAATALIESSAAAEAGGKTGLTALSAAVMFLLMLLFTPVALMIPKEATAPALILIGLNMFSGLRKVDLANFTDGLPVLMMVMITLIANSFGTGIAGGLLFYIVIKAIAGKWREIPIGLWVLAVPLVYYFATLVRH” belongs “failed”. To “MADPKELQDKFWKALKSDRTVMLGLDGVEDGHARPMTAQIEGDSGGPIWFFTSKDNALIAMLGQGRRVIGAFSSKGHDLFASISGSLREDTDPAVVDRLWNPYVAAWYEGGKDDPKLALLRLDADHAQIWLNGSSLLAGIKVLLGV” belongs “not failed”. For the sequence “MADQLYLENIDEFVTDQNKIVTYKWLSYTLGVHVNQAKQMLYDYVERKRKENSGAQLHVTYLVSGSLIQNGHSCHKVAVVREDKLEAVKSKLAVTASIHVYSIQKAMLKDSGPLFNTDYDILKSNLQNCSKFSAIQC”, the protein production entry is recorded as “failed”. The result for “MADSAELKQMVMSLRVSELQVLLGYAGRNKHGRKHELLTKALHLLKAGCSPAVQMKIKELYRRRF” reads “not failed”.

Source of the values: a protein production outcome set (Wang et al. 2014).
